According to patent US20260069687A1:

Target: Claudin 18 splice variant 2 (CLDN18.2) (human)
Assay: cell-based or functional assay

IMAB362, sequence (VH): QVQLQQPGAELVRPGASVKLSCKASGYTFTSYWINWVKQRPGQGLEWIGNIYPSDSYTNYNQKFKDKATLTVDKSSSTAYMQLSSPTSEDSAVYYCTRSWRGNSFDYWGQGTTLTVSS
IMAB362, sequence (VL): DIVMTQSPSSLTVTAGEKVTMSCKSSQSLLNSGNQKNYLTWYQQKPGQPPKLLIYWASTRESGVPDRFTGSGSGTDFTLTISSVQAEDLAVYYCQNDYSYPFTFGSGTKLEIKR

## IMAB362 (antibody)
  CDC lysis of CLDN18.2-transfected CHO-K1 cells, 0.5 µg/ml IMAB362 in pooled sera from healthy controls, 80 min: 64.5%
  CDC lysis of CLDN18.2-transfected CHO-K1 cells, 0.5 µg/ml fresh IMAB362 in patient pre-infusion serum (20% v/v), 80 min: 71%
  CDC lysis of CLDN18.2-transfected CHO-K1 cells, 0.5 µg/ml fresh IMAB362 in pre-infusion serum of patient 0204, 80 min: 93.9%
  EC50 of CDC on CLDN18.2 positive CHO-K1 target cells: 0.5 µg/mL
  EC80-100 of total cytotoxicity (ADCC plus serum components) on NUGC-4 cells, healthy donor PBMCs, E:T 40:1, 25% serum: 200 µg/mL
  maximal specific lysis of NUGC-4 target cells, ADCC with patient PBMCs (E:T 20:1, 24 h), at ~30 µg/ml IMAB362: 27 to 77%
  specific killing of NUGC-4 cells by IMAB362 present in patient serum 28-32 days after administration (healthy donor PBMCs, E:T 40:1): > 48%
